Here are results for two proteins from PMC8053096 (Nucleic Acids Research, 2021).

The data set deals with the molecule itself. The data set can be described thus: SEC. (In general: In gel filtration, larger molecules generally elute earlier.)

B1: MsmLhr C-terminal domain, MsmLhr-(863-1507) (domain or fragment, Mycobacterium smegmatis, UniProt A0QT91 863-1507, looked up)
chain: SPLAERRAAALALDTVLLSELLGRVELRELLDPAVVASTSAQLQHLTPERAARDAEGVADLLRLLGPLTEADIAQRCTADNIGAWLDGLHAAKRALPVTYAGQTWWAAVEDIGLLRDGIGVPVPVGVPAAFTESASDPLGDLIGRYARTRGPFTTEQTAARFGLGVRVASDVLSRMAVDGRLIRGEFAADLSGEQWCDAQVLKILRRRSLAALRAQVEPVSTDAYARFLPSWQHVGSTNTTGIDGLATVIEQLAGVPIPASAVESLVFPQRVRDYQPAMLDELLASGEVMWSGAGQIGNGDGWVAFHLADTAPLTLTHGAEIEFTDTHRVILETLGHGGAYFFRQLTDGTVEGTAGQELKQALWELIWAGWVTGDTFAPVRAVLSGPRRSGAPAHRQRQRPPRLSRYSVAHAQTRGTDPTVSGRWSALPAAEPDSTVRAHFQAELLLGRHGVLTKGAVGAEGVPGGFATLYKVLSTFEDAGRCQRGYFVESLGGAQFAVASTVDRLRSYLDNVDPERPEYHAVVLAATDPANPYGAALGWPTDSEAHRPGRKAGALVALVDGRLVWFLERGGRSLLSFGADADAQRAAAGALTDLVSAGRIPSLLVERINGVAVLDPDVDAERAVVQDALLGAGLSRTPRGLRLR
As for B1, the binding result is on record as “binds”.

B2: full-length Escherichia coli Lhr (enzyme, Escherichia coli K-12 MG1655)
chain: SEFELRRQACMADNPDPSSLLPDVFSPATRDWFLRAFKQPTAVQPQTWHVAARSEHALVIAPTGSGKTLAAFLYALDRLFREGGEDTREAHKRKTSRILYISPIKALGTDVQRNLQIPLKGIADERRRRGETEVNLRVGIRTGDTPAQERSKLTRNPPDILITTPESLYLMLTSRARETLRGVETVIIDEVHAVAGSKRGAHLALSLERLDALLHTSAQRIGLSATVRSASDVAAFLGGDRPVTVVNPPAMRHPQIRIVVPVANMDDVSSVASGTGEDSHAGREGSIWPYIETGILDEVLRHRSTIVFTNSRGLAEKLTARLNELYAARLQRSPSIAVDAAHFESTSGATSNRVQSSDVFIARSHHGSVSKEQRAITEQALKSGELRCVVATSSLELGIDMGAVDLVIQVATPLSVASGLQRIGRAGHQVGGVSKGLFFPRTRRDLVDSAVIVECMFAGRLENLTPPHNPLDVLAQQTVAAAAMDALQVDEWYSRVRRAAPWKDLPRRVFDATLDMLSGRYPSGDFSAFRPKLVWNRETGILTARPGAQLLAVTSGGTIPDRGMYSVLLPEGEEKAGSRRVGELDEEMVYESRVNDIITLGATSWRIQQITRDQVIVTPAPGRSARLPFWRGEGNGRPAELGEMIGDFLHLLADGAFFSGTIPPWLAEENTIANIQGLIEEQRNATGIVPGSRHLVLERCRDEIGDWRIILHSPYGRRVHEPWAVAIAGRIHALWGADASVVASDDGIVARIPDTDGKLPDAAIFLFEPEKLLQIVREAVGSSALFAARFRECAARALLMPGRTPGHRTPLWQQRLRASQLLEIAQGYPDFPVILETLRECLQDVYDLPALERLMRRLNGGEIQISDVTTTTPSPFATSLLFGYVAEFMYQSDAPLAERRASVLSLDSELLRNLLGQVDPGELLDPQVIRQVEEELQRLAPGRRAKGEEGLFDLLRELGPMTVEDLAQRHTGSSEEVASYLENLLAVKRIFPAMISGQERLACMDDAARLRDALGVRLPESLPEIYLHRVSYPLRDLFLRYLRAHALVTAEQLAHEFSLGIAIVEEQLQQLREQGLVMNLQQDIWVSDEVFRRLRLRSLQAAREATRPVAATTYARLLLERQGVLPATDGSPALFASTSPGVYEGVDGVMRVIEQLAGVGLPASLWESQILPARVRDYSSEMLDELLATGAVIWSGQKKLGEDDGLVALHLQEYAAESFTPAEADQANRSALQQAIVAVLADGGAWFAQQISQRIRDKIGESVDLSALQEALWALVWQGVITSDIWAPLRALTRSSSNARTSTRRSHRARRGRPVYAQPVSPRVSYNTPNLAGRWSLLQVEPLNDTERMLALAENMLDRYGIISRQAVIAENIPGGFPSMQTLCRSMEDSGRIMRGRFVEGLGGAQFAERLTIDRLRDLATQATQTRHYTPVALSANDPANVWGNLLPWPAHPATLVPTRRAGALVVVSGGKLLLYLAQGGKKMLVWQEKEELLAPEVFHALTTALRREPRLRFTLTEVNDLPVRQTPMFTLLREAGFSSSPQGLDWG
For B2, the binding result is reported as “binds”.
